Source: US20240327505A1 (published 2024)

Target: SARS-CoV-2 spike receptor-binding domain (RBD) protein (SARS-CoV-2, UniProt P0DTC2 319-541)
Assay: BLI

B1: AB-009620 (antibody, V domains shown)
VH: QITLKESGPTLVKPTQTLTLTCTFSGFSLSTSGVGVGWIRQPPGKALEWLALIYWDDDKRYSPSLKSRLTITKDTSKNQVVLTMTNMDPVDTATYYCAHHEVATVFDYWGQGTLVTVSS
VL: QSALTQPASVSGSPGQSITISCTGTSSDVGAYNYVSWYQQHPGKAPKLMIYEVSNRPSGVSNRFSGSKSGNTASLTISGLQAEDEADYYCSSYTSSSTVFGGGTKLTVL
B1 showed a Kd of 5.99 nM.
